This note sets out measurements from the supplement of paper PMC10567573.

First the molecules themselves.
B1: CDS2 (parent)
chain: LIVVTQSHLVIHNLFEGMIWFIVP
B2: ISL2 (parent)
chain: HYPFLGAMGDHSKKKPGTAMCVGC
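Note: lentivirally expressed fusions sorted by FACS into six bins by GFP to DsRed ratio, PSI derived from sequencing read proportions per bin multiplied by bin number.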

The first series covers variants of B1. Kind of series: protein stability index of a GFP-peptide fusion (GPS, HEK-293T) (PSI 1-6); higher = more stable. The following applies: c terminus: a fixed tail appended.
In the case of LIVVTQSHLVIMNLFEGMIWFIVP, the protein stability index was 2.67.
In the case of LIVVTQSHLVIPNLFEGMIWFIVP, the protein stability index was determined as 1.35.
Still for that read-out and setting: the same measure for LIVVTQSHLVIDNLFEGMIWFIVP: 3.58; for LIVVTQSHLVITNLFEGMIWFIVP: 4.2.
Turning to LIVVTQSHLVIKNLFEGMIWFIVP, the protein stability index is 2.6.
Consider LIVVTQSHLVIHNLFMGMIWFIVP, for which the protein stability index was found to be 3.76.
On the same count and under the same terms, the figure for LIVVTQSHLVIHNLFLGMIWFIVP is 4.5.
With LIVVTQSHLVIHNLFAGMIWFIVP, the protein stability index was 4.16.
With LIVVTQSHLVIHNLFPGMIWFIVP, the protein stability index turned out to be 2.48.
The same measure, in the same setting: the figure for LIVVTQSHLVIHNLFDGMIWFIVP is 3.44.
Same read-out and setting: the figure for LIVVTQSHLVIHNLFGGMIWFIVP is 2.9; for LIVVTQSHLVIHNLFEGMIWFIEP it is 4.22.
The same measure, in the same setting: the figure for LIVVTQSHLVIHNLFEGMIWFICP is 3.47; for LIVVTQSHLVIHNLFEGMIWFITP it is 3.31; for LIVVTQSHLVIHNLFEGMIWFIFP it is 4.17.
As for LIVVTQSHLVIHNLFEGMIWFISP, the protein stability index was found to be 1.85.
On the same count and under the same terms, the same measure for LIVVTQSHSVIHNLFEGMIWFIVP: 1.96.

Another series covers variants of B2. The series is described as above. The following applies: c terminus: a fixed tail appended.
Regarding HYPFLGAMGDHSKKKPGTAMWVGC, the protein stability index was found to be 1.91.
In the case of HYPFLGAMGDHSKKKPGTAMAVGC, the protein stability index came out at 2.94.
For the variant HYPFLGAMGDHSKKKPGTAMFVGC, the protein stability index is 2.71.
The same measure, in the same setting: the figure for HYPFLGAMGDHSKKKPGTAMDVGC is 2.96; for HYPFLGAMGDHSKKKPGTAMQVGC it is 3.43; for HYPFLGAMGDHSKKKPGTAMMVGC it is 2.28.
The same measure, in the same setting: the figure for HYPFLGAMGDHSKKKPGTAMNVGC is 3.29; for HYPFLGAMGDHSKKKPGTAMVVGC it is 2.72.
The same measure, in the same setting: the figure for HYPFLGAMGDHSKKKPGTAMPVGC is 3.59; for HYPFLGAMGDHSKKKPGTAMRVGC it is 2.79.
As to HYPFLGAMGDHSKKKPGTAMKVGC, the protein stability index came to 3.81.
The same measure, in the same setting: the figure for HYPFLGAMGDHSKKKPGTAMLVGC is 3.31.
Same read-out and setting: the figure for HYPFLGAMGDHSKKKPGTAMTVGC is 3.71; for HYPFLGAMGDHSKKKPGTAMYVGC it is 2.97.
Take HYPFLGAMGDHSKKKPGTAMIVGC: the protein stability index came to 2.69.
For the variant HYPFLGAMGDHSKKKPGTAMEVGC, the protein stability index was found to be 3.39.
Still for that read-out and setting: the same measure for HYPFLGAMGDHSKKKPGTAMHVGC: 3.04; for HYPFLGAMGDHSKKKPGTAMGVGC: 3.12; for HYPFLGAMGDHSKKKPGTAMSVGC: 3.37.
Still for that read-out and setting: the same measure for HYPFLGAMGDHSKKKPGTAMCVTC: 2.96; for HYPFLGAMGDHSKKKPGTAMCVKC: 3.18.
Still for that read-out and setting: the figure for HYPFLGAMGDHSKKKPGTAMCVLC is 1.8.
For the variant HYPFLGAMGDHSKKKPGTAMCVCC, the protein stability index worked out at 3.18.
For the variant HYPFLGAMGDHSKKKPGTAMCVFC, the protein stability index was 2.44.
Still for that read-out and setting: the figure for HYPFLGAMGDHSKKKPGTAMCVAC is 2.42; for HYPFLGAMGDHSKKKPGTAMCVMC it is 1.58; for HYPFLGAMGDHSKKKPGTAMCVQC it is 2.57.
Consider HYPFLGAMGDHSKKKPGTAMCVPC, for which the protein stability index was 3.31.
As to HYPFLGAMGDHSKKKPGTAMCVSC, the protein stability index was determined as 2.76.
With HYPFLGAMGDHSKKKPGTAMCVYC, the protein stability index turned out to be 1.69.
Still for that read-out and setting: the same measure for HYPFLGAMGDHSKKKPGTAMCVWC: 1.85; for HYPFLGAMGDHSKKKPGTAMCVIC: 2.16.
Same read-out and setting: the same measure for HYPFLGAMGDHSKKKPGTAMCVNC: 2.72; for HYPFLGAMGDHSKKKPGTAMCVRC: 2.43.
Same read-out and setting: the figure for HYPFLGAMGDHSKKKPGTAMCVEC is 3.25.
Regarding HYPFLGAMGDHSKKKPGTAMCVDC, the protein stability index is 3.32.
The same measure, in the same setting: the same measure for HYPFLGAMGDHSKKKPGTAMCVVC: 2.28.
Same read-out and setting: the figure for HYPFLGAMGDHSKKKPGTAMCVHC is 2.52; for HYPFLGAMGDHSKKKPGTAYCVGC it is 1.99; for HYPFLGAMGDHSKKKPGTAMCVGN it is 3.64.
On the same count and under the same terms, the figure for HYPFLGAMGDHSKKKPGTAMCVGT is 2.83; for HYPFLGAMGDHSKKKPGTAMCVGL it is 2.48.
On to HYPFLGAMGDHSKKKPGTAMCVGV, for which the protein stability index is 3.24.
Still for that read-out and setting: the same measure for HYPFLGAMGDHSKKKPGTAMCVGK: 4.12; for HYPFLGAMGDHSKKKPGTAMCVGH: 3.42; for HYPFLGAMGDHSKKKPGTAMCVGA: 3.09.
As to HYPFLGAMGDHSKKKPGTAMCVGI, the protein stability index turned out to be 2.8.
The same measure, in the same setting: the same measure for HYPFLGAMGDHSKKKPGTAMCVGG: 3.17; for HYPFLGAMGDHSKKKPGTAMCVGS: 3.46; for HYPFLGAMGDHSKKKPGTAMCVGF: 2.23.
The same measure, in the same setting: the figure for HYPFLGAMGDHSKKKPGTAMCVGR is 3.52.
Still for that read-out and setting: the same measure for HYPFLGAMGDHSKKKPGTAMCVGQ: 4.02; for HYPFLGAMGDHSKKKPGTAMCVGY: 2.75.
On to HYPFLGAMGDHSKKKPGTAMCVGE, for which the protein stability index is 4.5.
Same read-out and setting: the same measure for HYPFLGAMGDHSKKKPGTAMCVGM: 2.52; for HYPFLGAMGDHSKKKPGTAMCVGW: 1.68.
Regarding HYPFLGAMGDHSKKKPGTAMCVGP, the protein stability index came out at 3.82.
Same read-out and setting: the same measure for HYPFLGAMGDHSKKKPGTAMCVGD: 4.13; for HYPFLGAMGDHSKKKPGTAMCKGC: 3.18; for HYPFLGAMGDHSKKKPGTAMCDGC: 3.43.
Turning to HYPFLGAMGDHSKKKPGTAMCCGC, the protein stability index is 3.39.
On the same count and under the same terms, the figure for HYPFLGAMGDHSKKKPGTAMCRGC is 3.57; for HYPFLGAMGDHSKKKPGTAMCLGC it is 2.42.
Same read-out and setting: the same measure for HYPFLGAMGDHSKKKPGTAMCAGC: 3.04.
In the case of HYPFLGAMGDHSKKKPGTAMCYGC, the protein stability index came out at 2.34.
The same measure, in the same setting: the same measure for HYPFLGAMGDHSKKKPGTAMCWGC: 1.35.
With HYPFLGAMGDHSKKKPGTAMCHGC, the protein stability index was 3.01.
On the same count and under the same terms, the same measure for HYPFLGAMGDHSKKKPGTAMCTGC: 3.42; for HYPFLGAMGDHSKKKPGTAMCEGC: 3.46; for HYPFLGAMGDHSKKKPGTAMCMGC: 2.52.
Same read-out and setting: the figure for HYPFLGAMGDHSKKKPGTAMCNGC is 3.61; for HYPFLGAMGDHSKKKPGTAMCGGC it is 3.59; for HYPFLGAMGDHSKKKPGTAMCPGC it is 3.05.
Consider HYPFLGAMGDHSKKKPGTAMCFGC, for which the protein stability index worked out at 2.16.
As to HYPFLGAMGDHSKKKPGTAMCSGC, the protein stability index is 3.6.
Take HYPFLGAMGDHSKKKPGTAMCIGC: the protein stability index is 2.08.
The same measure, in the same setting: the same measure for HYPFLGAMGDHSKKKPGTAMCQGC: 3.44.
